Here are results for 2 sequences from the supplement of paper PMC6379048.

Common to all, as to test: Kd (EC50 corrected by depletion factor)
One data set has as its target CSNK2B (UniProt P67870). A digest of the protocol: (§1)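 Over three biological replicates and two independent experiments, proteins captured on NHS-Sepharose beads carrying 5′-amino-C6 RNA oligos were quantified by label-free LC-MS/MS and normalised to the control. Capture lasted 30 min at 4°C and followed a 1 h pre-incubation at 4°C of HEK293-FT lysate (2.5 mg protein/well) with the same oligos in free form (0 nM to 30 μM). EC50 was taken from a four-parameter log-logistic fit, and Kd was EC50 corrected by a protein-dependent depletion factor.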

A further data set addresses T1, PINX1 (UniProt Q96BK5).
T1 sequence: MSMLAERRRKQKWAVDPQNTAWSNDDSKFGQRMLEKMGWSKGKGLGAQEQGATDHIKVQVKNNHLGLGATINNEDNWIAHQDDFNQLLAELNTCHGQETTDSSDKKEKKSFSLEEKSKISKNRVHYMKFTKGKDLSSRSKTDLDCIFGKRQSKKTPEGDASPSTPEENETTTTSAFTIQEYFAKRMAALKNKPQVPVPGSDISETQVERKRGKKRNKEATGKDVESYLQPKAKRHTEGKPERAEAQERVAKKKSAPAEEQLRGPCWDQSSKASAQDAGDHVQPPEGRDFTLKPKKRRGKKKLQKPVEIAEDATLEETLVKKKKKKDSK
A digest of the protocol:
as §1

For the next data set, the target named is T2, TIAL1 (UniProt Q01085).
T2 sequence: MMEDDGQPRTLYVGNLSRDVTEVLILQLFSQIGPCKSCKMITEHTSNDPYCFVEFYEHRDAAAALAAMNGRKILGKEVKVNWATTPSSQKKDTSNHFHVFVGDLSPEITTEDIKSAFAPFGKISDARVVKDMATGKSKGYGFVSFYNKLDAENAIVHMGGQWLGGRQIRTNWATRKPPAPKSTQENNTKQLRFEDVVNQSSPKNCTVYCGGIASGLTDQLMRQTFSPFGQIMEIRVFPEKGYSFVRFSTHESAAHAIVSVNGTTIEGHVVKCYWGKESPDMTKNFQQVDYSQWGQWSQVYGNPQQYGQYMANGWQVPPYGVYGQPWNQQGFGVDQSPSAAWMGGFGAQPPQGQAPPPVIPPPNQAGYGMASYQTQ
Summed up: as §1

In the next data set the target is MRPS22 (UniProt P82650). A digest of the protocol:
as §1

The target in the next data set is T3, PRPF31 (UniProt Q8WWY3).
T3 sequence: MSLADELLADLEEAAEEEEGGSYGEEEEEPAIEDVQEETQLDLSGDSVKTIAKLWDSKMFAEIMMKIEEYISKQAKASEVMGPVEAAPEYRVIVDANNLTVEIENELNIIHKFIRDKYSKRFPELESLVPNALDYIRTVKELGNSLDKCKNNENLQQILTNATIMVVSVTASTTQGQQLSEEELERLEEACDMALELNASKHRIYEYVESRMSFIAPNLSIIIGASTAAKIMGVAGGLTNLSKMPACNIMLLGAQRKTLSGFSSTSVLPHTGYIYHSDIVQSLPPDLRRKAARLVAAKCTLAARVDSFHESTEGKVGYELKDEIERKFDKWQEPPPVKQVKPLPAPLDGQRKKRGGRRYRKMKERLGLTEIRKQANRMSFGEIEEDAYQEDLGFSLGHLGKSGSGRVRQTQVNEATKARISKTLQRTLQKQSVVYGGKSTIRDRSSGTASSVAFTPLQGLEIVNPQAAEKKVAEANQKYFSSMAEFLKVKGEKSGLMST
A digest of the protocol: as §1

The target in a further data set is T4, PRPF4 (UniProt O43172).
T4 sequence: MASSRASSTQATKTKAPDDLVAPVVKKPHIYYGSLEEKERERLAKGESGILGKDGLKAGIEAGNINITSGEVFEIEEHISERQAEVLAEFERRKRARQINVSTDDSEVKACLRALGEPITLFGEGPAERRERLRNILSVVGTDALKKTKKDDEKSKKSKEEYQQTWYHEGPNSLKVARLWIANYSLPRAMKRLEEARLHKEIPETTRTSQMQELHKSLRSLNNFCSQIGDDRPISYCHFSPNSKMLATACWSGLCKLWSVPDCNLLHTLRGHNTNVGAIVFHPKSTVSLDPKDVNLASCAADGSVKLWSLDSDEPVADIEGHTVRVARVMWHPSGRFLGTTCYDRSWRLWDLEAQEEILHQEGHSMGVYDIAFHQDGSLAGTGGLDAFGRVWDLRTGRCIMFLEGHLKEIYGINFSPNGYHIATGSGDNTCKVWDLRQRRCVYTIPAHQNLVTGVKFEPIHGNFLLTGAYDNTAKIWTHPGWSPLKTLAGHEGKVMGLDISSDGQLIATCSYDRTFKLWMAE
A digest of the protocol: as §1

The Kd is a measure of binding affinity in units of concentration. Low values mean higher affinity, high ones lower affinity.

Sequence of CSNK2B (P67870 whole entry): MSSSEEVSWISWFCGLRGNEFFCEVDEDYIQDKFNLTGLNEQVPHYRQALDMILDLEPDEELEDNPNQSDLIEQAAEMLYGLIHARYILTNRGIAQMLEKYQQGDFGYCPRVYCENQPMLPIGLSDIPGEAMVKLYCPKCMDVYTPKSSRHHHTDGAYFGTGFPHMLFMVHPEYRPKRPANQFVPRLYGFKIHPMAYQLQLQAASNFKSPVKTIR

For the sequence AAUAAA, the Kd with CSNK2B was found to be 2220 nM; in the data set with PINX1, 360 nM; in the data set with TIAL1 it was 11.2 nM.
As to UAUUUAU, the results for the equilibrium dissociation constant (Kd) with MRPS22, in the data set with PRPF31 and in the data set with PRPF4 were 57.8 nM, 2850 nM and 2640 nM, respectively.
